Experimental data published in patent US20080044420A1 (published 2008).

Biological target: T1, human IL-13R130Q (human, UniProt P35225 35-146, mildly biotinylated (approximately 1-2 molecules per molecule IL-13R130Q) in ELISA screens and receptor binding assays; not biotinylated when amine-coupled to the Biacore chip ; Mildly biotinylated …)
T1 construct: also called IL-13 R130Q variant; biotinylated IL-13R130Q
Test: method and antigen form not given
Method: Affinity determination by surface plasmon resonance (BIAcore™). […] F1 chips (Biacore, Sweden) were coated with ˜800 RU IL-13R130Q (250 μg/ml, 10 mM acetate buffer, pH 4.0) and respective amount of HSA (20 μg/ml/10 mM acetate buffer, pH 4.5) to the reference flow cell, using standard EDC-NHS amine coupling chemistry. Due to the instability of the antigen on the chip a freshly prepared chip was used for every measurement. Regeneration was done with 2×5 μl pulses of 10 mM HCl. All kinetic measurements were performed in PBS buffer (136 mM NaCl, 2.7 mM KCl, 10 mM Na₂HPO₄, 1.76 mM KH₂PO₄ pH 7.4) at a flow rate of 20 μl/min using Fab concentration range from 1.5-500 nM. Injection time for each concentration was 1 min. All sensograms were fitted globally using BIA evaluation software 3.1. Abbreviations: EDC 1-Ethyl-3-(3-Dimethlaminopropyl) carbodiimide; NHS N-hydroxysuccinimide; RU Resonance Units

T1 sequence (P35225 35-146 limits assumed): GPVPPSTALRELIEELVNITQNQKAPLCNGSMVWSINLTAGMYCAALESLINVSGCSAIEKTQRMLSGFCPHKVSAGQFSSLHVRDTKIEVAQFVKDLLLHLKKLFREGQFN

Kd: < 10 µM
B1: lead candidate SEQ ID NOS:48-49 (HC AA50 Gly, AA54 Asp, AA56 Ser; LC AA1 Ser, AA2 Tyr) (Fab, V domains shown)
VH: QVQLVESGGGLVQPGGSLRLSCAASGFTFNSYWINWVRQAPGKGLEWVSGIAYDSSNTLYADSVKGRFTISRDNSKNTLYLQMNSLRAEDTAVYYCARGLGAFHWDMQPDYWGQGTLVTVSS
VL: SYELTQPPSVSVAPGQTARISCSGDNIGGTFVSWYQQKPGQAPVLVIYDDNDRPSGIPERFSGSNSGNTATLTISGTQAEDEADYYCGTWDMVTNNVFGGGTKLTVL
notes: also called final lead candidate
